B1: TPR t1 (parent)
chain: GACCAAUCUGCCCUCAGAGCUCGAGAACAUCUUCGGAUGCAGAGGAGGCAGGCUUCGGUGGCGCGAUAGCGCCAACGUCCUCAACCUCCAAUGCAUCCCACCACAUGAUGAUGCCUGAAGAGCCUUGGUUUUUUG

Variants of: B1
Assay: polymerase ribozyme fitness, log enrichment relative to wild type (log ratio); higher = more active; in vitro selection for triplet polymerase activity
In short: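 Libraries of mutants in each subunit of a heterodimeric triplet polymerase ribozyme were generated by PCR and transcribed. In triplicate, each went through one in vitro selection round: annealing with biotinylated primer, partner subunit and triplets; frozen incubation at −7 °C; gel excision of extended constructs; streptavidin-bead capture; RT-PCR. Fitness, taken from Illumina sequencing of input and output libraries, is the logarithm of a genotype's enrichment over wild-type enrichment, averaged across replicates with inverse-variance weights. The logarithm is base 2, and genotypes needed ≥10 input reads and ≥1 read per output to be kept.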
For G44U C70U U96A C104A, the “polymerase ribozyme fitness (log ratio)” value was -4.6.
With G44A C56A C89U C97U U116A the “polymerase ribozyme fitness (log ratio)” value was -3.63.
In the case of A43G U133A, the “polymerase ribozyme fitness (log ratio)” value is reported as -1.57.
With G44C G63C A91G the “polymerase ribozyme fitness (log ratio)” value was -2.62.
With A43U A46G U106A the “polymerase ribozyme fitness (log ratio)” value was -2.63.
With A43U G44U G48A G122A the “polymerase ribozyme fitness (log ratio)” value was -2.63.
With A43U G60U C82A G113A G128C the “polymerase ribozyme fitness (log ratio)” value was -4.46.
In the case of G44A A46U G47C A74G G93A, the “polymerase ribozyme fitness (log ratio)” value is reported as -3.83.
For G44U C62A, the “polymerase ribozyme fitness (log ratio)” value was -2.41.
For G44U G71A U130A, the “polymerase ribozyme fitness (log ratio)” value was -2.12.
With G44C C53U C76U the “polymerase ribozyme fitness (log ratio)” value was -1.48.
With G44U C70A the “polymerase ribozyme fitness (log ratio)” value was -2.87.
With G44U C53G G61C G93A the “polymerase ribozyme fitness (log ratio)” value was -2.01.
For A43C G44U G113A, the “polymerase ribozyme fitness (log ratio)” value was -3.01.
With A43G G61A U78C G117U the “polymerase ribozyme fitness (log ratio)” value was -4.59.
With A43G G51C C72U U78G C79A U112A the “polymerase ribozyme fitness (log ratio)” value was -5.74.
In the case of A43G C62U C72A G113C, the “polymerase ribozyme fitness (log ratio)” value is reported as -2.93.
In the case of G44U C64U C82U U106G G120A, the “polymerase ribozyme fitness (log ratio)” value is reported as -1.25.
In the case of A43U U131A, the “polymerase ribozyme fitness (log ratio)” value is reported as -1.44.
For A43G G44U C49G U96A, the “polymerase ribozyme fitness (log ratio)” value was -2.32.
With G44C G127A U130G the “polymerase ribozyme fitness (log ratio)” value was -2.95.
In the case of A43U G44C G63A, the “polymerase ribozyme fitness (log ratio)” value is reported as -2.96.
In the case of G44A C49A C85G C94A, the “polymerase ribozyme fitness (log ratio)” value is reported as -3.35.
For G45C C70U A83C, the “polymerase ribozyme fitness (log ratio)” value was -1.86.
In the case of A43G A100U, the “polymerase ribozyme fitness (log ratio)” value is reported as -2.72.
In the case of G44U G60U C94U, the “polymerase ribozyme fitness (log ratio)” value is reported as -0.792.
For G44C G69U A121C, the “polymerase ribozyme fitness (log ratio)” value was 1.9.
With A43U C56G C64U the “polymerase ribozyme fitness (log ratio)” value was -2.1.
In the case of A43U G60C C82A G113A G128C, the “polymerase ribozyme fitness (log ratio)” value is reported as -4.68.
In the case of G44C C73U, the “polymerase ribozyme fitness (log ratio)” value is reported as -0.621.
In the case of G44U A46G C62U C94G, the “polymerase ribozyme fitness (log ratio)” value is reported as -4.05.
In the case of A43U G52U A68G, the “polymerase ribozyme fitness (log ratio)” value is reported as -4.56.
In the case of G44U U54C C64U C102U G113A G128U, the “polymerase ribozyme fitness (log ratio)” value is reported as -6.53.
In the case of A43U G48U G61A, the “polymerase ribozyme fitness (log ratio)” value is reported as -1.54.
In the case of G45C C72A, the “polymerase ribozyme fitness (log ratio)” value is reported as -0.797.
In the case of G44A C62A A111G, the “polymerase ribozyme fitness (log ratio)” value is reported as -3.93.
With A43C C70U the “polymerase ribozyme fitness (log ratio)” value was -3.69.
With G44C C73A C115U the “polymerase ribozyme fitness (log ratio)” value was -2.64.
With G45A A50C G63A C82G G117C the “polymerase ribozyme fitness (log ratio)” value was -6.01.
With G44A G69C the “polymerase ribozyme fitness (log ratio)” value was -2.21.
For G45C G93U A121U, the “polymerase ribozyme fitness (log ratio)” value was -1.16.
In the case of A43U G110A, the “polymerase ribozyme fitness (log ratio)” value is reported as -3.03.
For G44C G71A C82U A83C, the “polymerase ribozyme fitness (log ratio)” value was -2.53.
In the case of G44A C72G C80U C101U, the “polymerase ribozyme fitness (log ratio)” value is reported as -2.59.
With G45A C85G the “polymerase ribozyme fitness (log ratio)” value was -3.89.
In the case of G45A C53G, the “polymerase ribozyme fitness (log ratio)” value is reported as -0.662.
For G44A G71A A91G U116A G122A C124U, the “polymerase ribozyme fitness (log ratio)” value was -4.96.
With G44A G51A G63U U125A the “polymerase ribozyme fitness (log ratio)” value was -7.95.
In the case of G44C C76U U78A, the “polymerase ribozyme fitness (log ratio)” value is reported as -1.08.
In the case of G44A C98A A111U, the “polymerase ribozyme fitness (log ratio)” value is reported as -5.83.
In the case of G44C U112G G120U G127C, the “polymerase ribozyme fitness (log ratio)” value is reported as -5.08.
For G45C A46C A105C, the “polymerase ribozyme fitness (log ratio)” value was -5.01.
With G44U C102G the “polymerase ribozyme fitness (log ratio)” value was -8.01.
In the case of A43C U55G G61C C79U C97U U116G, the “polymerase ribozyme fitness (log ratio)” value is reported as -5.31.
With G45A C56G U87G C114G the “polymerase ribozyme fitness (log ratio)” value was -5.48.
With A43U U59A U134G the “polymerase ribozyme fitness (log ratio)” value was -1.56.
For G44U G77C A90U, the “polymerase ribozyme fitness (log ratio)” value was -1.31.
For G44A C53U, the “polymerase ribozyme fitness (log ratio)” value was -2.11.
For G44U G128U, the “polymerase ribozyme fitness (log ratio)” value was -3.49.
With G44C C56U C79A C101U the “polymerase ribozyme fitness (log ratio)” value was -2.56.
For G44A C88U, the “polymerase ribozyme fitness (log ratio)” value was -1.23.
With G45C G61C U131G the “polymerase ribozyme fitness (log ratio)” value was -1.96.
With A43G U55C C64U C72G the “polymerase ribozyme fitness (log ratio)” value was -2.14.
For A43C U129G, the “polymerase ribozyme fitness (log ratio)” value was -3.27.
For G44U G71U C104U U106A, the “polymerase ribozyme fitness (log ratio)” value was -1.53.
In the case of G44A C72G, the “polymerase ribozyme fitness (log ratio)” value is reported as -1.16.
For G44A C72U, the “polymerase ribozyme fitness (log ratio)” value was -1.55.
For G45A C88A, the “polymerase ribozyme fitness (log ratio)” value was -0.795.
In the case of G44U C53A C70A, the “polymerase ribozyme fitness (log ratio)” value is reported as -2.06.
For G44A G63A, the “polymerase ribozyme fitness (log ratio)” value was -2.44.
In the case of A43U A46G U55G, the “polymerase ribozyme fitness (log ratio)” value is reported as -1.34.
With G45A C80A C115A the “polymerase ribozyme fitness (log ratio)” value was -3.93.
With G45A A118G the “polymerase ribozyme fitness (log ratio)” value was -1.02.
In the case of A43U C56A C85G U133A, the “polymerase ribozyme fitness (log ratio)” value is reported as -4.39.
With G45A A119G the “polymerase ribozyme fitness (log ratio)” value was 0.105.
For A43G C62U C73U A84C U92A A118U U132C G135C, the “polymerase ribozyme fitness (log ratio)” value was -2.69.
With G44C A46G the “polymerase ribozyme fitness (log ratio)” value was -0.686.
In the case of G45A C49A C72G G128A, the “polymerase ribozyme fitness (log ratio)” value is reported as -3.14.
For A43U C80U C99U G120C, the “polymerase ribozyme fitness (log ratio)” value was -6.23.
For G45A A111G C114A, the “polymerase ribozyme fitness (log ratio)” value was -5.79.
With A43U G45A C53U C56G A84U the “polymerase ribozyme fitness (log ratio)” value was -2.19.
In the case of A43U G60U C64G C73G C85U C98G C115U, the “polymerase ribozyme fitness (log ratio)” value is reported as -6.57.
With G45A A50U the “polymerase ribozyme fitness (log ratio)” value was -1.05.
